Assay results published in patent CN117756939A.

Molecular target: 人源LILRB1 (human LILRB1, on HEK293T-hLILRB1, Jurkat-hLILRB1 or Daudi cells) (human)
Assay: flow cytometry, blocking of PE-HLA-G tetramer (2 μg/mL) binding to HEK293T-hLILRB1 cells

## BION-202 (Biond Biologics公司研发的靶向LILRB1人源化IgG4单克隆抗体) (antibody)
  IC50: 0.021 mg/L
